Data on four molecules can be found in PMC3642871 (Biochemistry, 2008).

B1: P107 huMIF (natural protein, human, UniProt P14174 2-115, looked up)
chain: PMFIVNTNVPRASVPDGFLSELTQQLAQATGKPPQYIAVHVVPDQLMAFGGSSEPCALCSLHSIGKIGGAQNRSYSKLLCGLLAERLRISPDRVYINYYDMNAANVPGWNNSTFA
B2: ΔC5 huMIF(1-109) (domain or fragment, human, UniProt P14174 2-110, looked up)
chain: PMFIVNTNVPRASVPDGFLSELTQQLAQATGKPPQYIAVHVVPDQLMAFGGSSEPCALCSLHSIGKIGGAQNRSYSKLLCGLLAERLRISPDRVYINYYDMNAANVGWN
B3: ΔC10 huMIF(1-104) (domain or fragment, human, UniProt P14174 2-105, looked up)
chain: PMFIVNTNVPRASVPDGFLSELTQQLAQATGKPPQYIAVHVVPDQLMAFGGSSEPCALCSLHSIGKIGGAQNRSYSKLLCGLLAERLRISPDRVYINYYDMNAA
B4: Recombinant, soluble huMIF receptor ectodomain (sCD74 73-232) (domain or fragment, UniProt P04233-2 73-232, looked up)
chain: QQQGRLDKLTVTSQNLQLENLRMKLPKPPKPVSKMRMATPLLMQALPMGALPQGPMQNATKYGNMTEDHVMHLLQNADPLKVYPPLKGSFPENLRHLKNTMETIDWKVFESWMHHWLLFEMSRHSLEQKPTDAPPKESLELEDPSSGLGVTKQDLGPVPM

The data set “AUC” concerns the molecule itself. As to the kind of experiment: AUC.
Data set [1] concerns the target B4. Briefly: ELISA. On the technique in general: ELISA stands for enzyme-linked immunosorbent assay.
The next data set addresses Biotinylated huMIF (human, UniProt P14174 2-115, biotin (sites not given)). Briefly: ELISA.

One may read the stoichiometry N as a count of units in the complex or per binding partner. With B1, the “stoichiometry N” value in “AUC” turned out to be 3.

Regarding B2, the “stoichiometry N” value in the data set “AUC” came to 3. Besides, in data set [1], the binding result is given as “binds”.

As for B3, the “stoichiometry N” value in the data set “AUC” is 3. The binding result in data set [1] is on record as “binds”.

Take B4: the binding result in the data set with Biotinylated huMIF is reported as “binds”.
